From patent US20250084142A1 (INTARCIA THERAPEUTICS, published 2025) come the findings set out here.

The chains are these.
B1: Compound A64 (peptide)
peptide: PKPEAPK([γGlu-γGlu-C20 diacid])KDASPEELNRYYADARHYLNWLTRQRF-NH2
modifications: N-terminus assumed
SMILES: CC(C)C[C@H](NC(=O)[C@H](Cc1ccc(O)cc1)NC(=O)[C@H](Cc1c[nH]cn1)NC(=O)[C@H](CCCNC(=N)N)NC(=O)[C@H](C)NC(=O)[C@H](CC(=O)O)NC(=O)[C@H](C)NC(=O)[C@H](Cc1ccc(O)cc1)NC(=O)[C@H](Cc1ccc(O)cc1)NC(=O)[C@H](CCCNC(=N)N)NC(=O)[C@H](CC(N)=O)NC(=O)[C@H](CC(C)C)NC(=O)[C@H](CCC(=O)O)NC(=O)[C@H](CCC(=O)O)NC(=O)[C@@H]1CCCN1C(=O)[C@H](CO)NC(=O)[C@H](C)NC(=O)[C@H](CC(=O)O)NC(=O)[C@H](CCCCN)NC(=O)[C@H](CCCCNC(=O)CC[C@H](NC(=O)CC[C@H](NC(=O)CCCCCCCCCCCCCCCCCCC(=O)O)C(=O)O)C(=O)O)NC(=O)[C@@H]1CCCN1C(=O)[C@H](C)NC(=O)[C@H](CCC(=O)O)NC(=O)[C@@H]1CCCN1C(=O)[C@H](CCCCN)NC(=O)[C@@H]1CCCN1)C(=O)N[C@@H](CC(N)=O)C(=O)N[C@@H](Cc1c[nH]c2ccccc12)C(=O)N[C@@H](CC(C)C)C(=O)N[C@H](C(=O)N[C@@H](CCCNC(=N)N)C(=O)N[C@@H](CCC(N)=O)C(=O)N[C@@H](CCCNC(=N)N)C(=O)N[C@@H](Cc1ccccc1)C(N)=O)[C@@H](C)O
B2: Compound A63 (peptide)
peptide: PKPEAPK([γGlu-γGlu-C20 diacid])KDASPEELNRYYADARHYLNWLTRQR[NMeY]-NH2
modifications: N-terminus assumed
SMILES: CC(C)C[C@H](NC(=O)[C@H](Cc1ccc(O)cc1)NC(=O)[C@H](Cc1c[nH]cn1)NC(=O)[C@H](CCCNC(=N)N)NC(=O)[C@H](C)NC(=O)[C@H](CC(=O)O)NC(=O)[C@H](C)NC(=O)[C@H](Cc1ccc(O)cc1)NC(=O)[C@H](Cc1ccc(O)cc1)NC(=O)[C@H](CCCNC(=N)N)NC(=O)[C@H](CC(N)=O)NC(=O)[C@H](CC(C)C)NC(=O)[C@H](CCC(=O)O)NC(=O)[C@H](CCC(=O)O)NC(=O)[C@@H]1CCCN1C(=O)[C@H](CO)NC(=O)[C@H](C)NC(=O)[C@H](CC(=O)O)NC(=O)[C@H](CCCCN)NC(=O)[C@H](CCCCNC(=O)CC[C@H](NC(=O)CC[C@H](NC(=O)CCCCCCCCCCCCCCCCCCC(=O)O)C(=O)O)C(=O)O)NC(=O)[C@@H]1CCCN1C(=O)[C@H](C)NC(=O)[C@H](CCC(=O)O)NC(=O)[C@@H]1CCCN1C(=O)[C@H](CCCCN)NC(=O)[C@@H]1CCCN1)C(=O)N[C@@H](CC(N)=O)C(=O)N[C@@H](Cc1c[nH]c2ccccc12)C(=O)N[C@@H](CC(C)C)C(=O)N[C@H](C(=O)N[C@@H](CCCNC(=N)N)C(=O)N[C@@H](CCC(N)=O)C(=O)N[C@@H](CCCNC(=N)N)C(=O)N(C)[C@@H](Cc1ccc(O)cc1)C(N)=O)[C@@H](C)O
B3: Compound A4 (peptide)
peptide: K([γGlu-γGlu-C20 diacid])PKPEAPGKDASPEEWNRYYADARHYLNWLTRQR[NMeY]-NH2
modifications: N-terminus assumed
SMILES: CC(C)C[C@H](NC(=O)[C@H](Cc1ccc(O)cc1)NC(=O)[C@H](Cc1c[nH]cn1)NC(=O)[C@H](CCCNC(=N)N)NC(=O)[C@H](C)NC(=O)[C@H](CC(=O)O)NC(=O)[C@H](C)NC(=O)[C@H](Cc1ccc(O)cc1)NC(=O)[C@H](Cc1ccc(O)cc1)NC(=O)[C@H](CCCNC(=N)N)NC(=O)[C@H](CC(N)=O)NC(=O)[C@H](Cc1c[nH]c2ccccc12)NC(=O)[C@H](CCC(=O)O)NC(=O)[C@H](CCC(=O)O)NC(=O)[C@@H]1CCCN1C(=O)[C@H](CO)NC(=O)[C@H](C)NC(=O)[C@H](CC(=O)O)NC(=O)[C@H](CCCCN)NC(=O)CNC(=O)[C@@H]1CCCN1C(=O)[C@H](C)NC(=O)[C@H](CCC(=O)O)NC(=O)[C@@H]1CCCN1C(=O)[C@H](CCCCN)NC(=O)[C@@H]1CCCN1C(=O)[C@@H](N)CCCCNC(=O)CC[C@H](NC(=O)CC[C@H](NC(=O)CCCCCCCCCCCCCCCCCCC(=O)O)C(=O)O)C(=O)O)C(=O)N[C@@H](CC(N)=O)C(=O)N[C@@H](Cc1c[nH]c2ccccc12)C(=O)N[C@@H](CC(C)C)C(=O)N[C@H](C(=O)N[C@@H](CCCNC(=N)N)C(=O)N[C@@H](CCC(N)=O)C(=O)N[C@@H](CCCNC(=N)N)C(=O)N(C)[C@@H](Cc1ccc(O)cc1)C(N)=O)[C@@H](C)O

Starred links: 1 amine or outer side, 2 acyl side, 3 side chain; linkers in the order of their positions; H or OH if unused. Non-standard residues stand in square brackets, D forms with d. Groups on a side chain read outwards from the residue. No end group written: not given here. *: point of attachment. C20 diacid = O=C(O)CCCCCCCCCCCCCCCCCCC(=O)*; Phe(4-F) = N[C@@H](Cc1ccc(F)cc1)C(=O)O; γGlu = O=C(O)[C@H](CCC(=O)[*:2])N[*:1]; NMeY = CN[C@@H](Cc1ccc(O)cc1)C(=O)O; hPhe = N[C@@H](CCc1ccccc1)C(=O)O

The first assay addresses T1, NPY2R.
T1 sequence (P49146 1-381, species assumed, looked up): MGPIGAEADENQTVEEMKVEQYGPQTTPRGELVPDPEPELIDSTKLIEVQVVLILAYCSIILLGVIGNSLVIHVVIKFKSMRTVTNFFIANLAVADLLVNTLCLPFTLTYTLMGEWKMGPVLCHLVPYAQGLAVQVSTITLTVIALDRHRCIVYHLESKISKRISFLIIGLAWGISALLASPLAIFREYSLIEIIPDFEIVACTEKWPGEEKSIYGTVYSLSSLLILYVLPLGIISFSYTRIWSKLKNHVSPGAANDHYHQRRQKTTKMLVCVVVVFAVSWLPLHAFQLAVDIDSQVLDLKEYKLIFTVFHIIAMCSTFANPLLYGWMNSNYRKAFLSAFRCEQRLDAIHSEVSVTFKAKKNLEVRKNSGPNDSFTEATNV
Nature of the assay: cell-based or functional assay.
Consider PKPEAPGK([γGlu-γGlu-C20 diacid])DASPEKWNRYYKDLRHYLNWLTRQRF-NH2 [Compound A67], for which the “NPY2R pEC50” value was 10.3 -Log(EC50, M).

PKPEAPGK([γGlu-γGlu-C20 diacid])DASPEEWNRKYKDLRHYLNWLTRQRF-NH2 [Compound A68]: the “NPY2R pEC50” value was 9.7 -Log(EC50, M).

For B1, the “NPY2R pEC50” value is 8.6 -Log(EC50, M).

Turning to PKPEAPGK([γGlu-γGlu-C20 diacid])DASPEEWNRYYADLRHYLNWLTRQR[hPhe]-NH2 [Compound A61], the “NPY2R pEC50” value was 10 -Log(EC50, M).

Take PKPEAPGK([γGlu-γGlu-C20 diacid])DASPEEWNRYKKDLRHYLNWLTRQRF-NH2 [Compound A69]: the “NPY2R pEC50” value was 10 -Log(EC50, M).

Turning to PKPEAPGK([γGlu-γGlu-C20 diacid])DKSPEEWNRYYKDLRHYLNWLTRQRF-NH2 [Compound A66], the “NPY2R pEC50” value was 10.3 -Log(EC50, M).

Take PKPEAPGK([γGlu-γGlu-C20 diacid])DASPEEWNRYYADLRHYLNWLTRQR[Phe(4-F)]-NH2 [Compound A60]: the “NPY2R pEC50” value was 10.3 -Log(EC50, M).

On to B2, for which the “NPY2R pEC50” value is 7.5 -Log(EC50, M).

Turning to B3, the “NPY2R pEC50” value is 8.7 -Log(EC50, M).

The target of the next assay is T2, NPY5R.
T2 sequence (Q15761 1-445, species assumed, looked up): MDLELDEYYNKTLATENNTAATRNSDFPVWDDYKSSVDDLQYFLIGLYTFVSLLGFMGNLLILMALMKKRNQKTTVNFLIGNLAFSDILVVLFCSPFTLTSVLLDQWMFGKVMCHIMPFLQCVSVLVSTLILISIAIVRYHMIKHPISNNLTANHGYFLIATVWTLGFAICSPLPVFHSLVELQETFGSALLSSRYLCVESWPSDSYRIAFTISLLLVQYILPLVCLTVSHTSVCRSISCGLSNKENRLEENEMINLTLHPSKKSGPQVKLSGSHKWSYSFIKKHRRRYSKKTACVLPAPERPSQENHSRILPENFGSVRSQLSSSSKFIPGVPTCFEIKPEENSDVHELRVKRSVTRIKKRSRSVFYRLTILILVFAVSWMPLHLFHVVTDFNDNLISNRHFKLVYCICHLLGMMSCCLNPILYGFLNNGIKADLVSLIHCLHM
Nature of the assay: cell-based or functional assay.
For the molecule PKPEAPGK([γGlu-γGlu-C20 diacid])DASPEKWNRYYKDLRHYLNWLTRQRF-NH2 [Compound A67], the “NPY5R pEC50” value was 8.5 -Log(EC50, M).

On to PKPEAPGK([γGlu-γGlu-C20 diacid])DASPEEWNRKYKDLRHYLNWLTRQRF-NH2 [Compound A68], for which the “NPY5R pEC50” value was 7.9 -Log(EC50, M).

As to B1, the “NPY5R pEC50” value is 7.9 -Log(EC50, M).

Consider PKPEAPGK([γGlu-γGlu-C20 diacid])DASPEEWNRYYADLRHYLNWLTRQR[hPhe]-NH2 [Compound A61], for which the “NPY5R pEC50” value is 8.3 -Log(EC50, M).

As to PKPEAPGK([γGlu-γGlu-C20 diacid])DASPEEWNRYKKDLRHYLNWLTRQRF-NH2 [Compound A69], the “NPY5R pEC50” value was 8.3 -Log(EC50, M).

For the molecule PKPEAPGK([γGlu-γGlu-C20 diacid])DKSPEEWNRYYKDLRHYLNWLTRQRF-NH2 [Compound A66], the “NPY5R pEC50” value is 8.3 -Log(EC50, M).

On to PKPEAPGK([γGlu-γGlu-C20 diacid])DASPEEWNRYYADLRHYLNWLTRQR[Phe(4-F)]-NH2 [Compound A60], for which the “NPY5R pEC50” value was 8.6 -Log(EC50, M).

With B2, the “NPY5R pEC50” value is 6 -Log(EC50, M).

B3: the “NPY5R pEC50” value is 7.3 -Log(EC50, M).
